Target: human beta-Klotho/FGFR1c complex on stable AM-1D cells (human) (UniProt Q86Z14)
Sequence of UniProt Q86Z14 (Q86Z14 whole entry, chain 1 of 2): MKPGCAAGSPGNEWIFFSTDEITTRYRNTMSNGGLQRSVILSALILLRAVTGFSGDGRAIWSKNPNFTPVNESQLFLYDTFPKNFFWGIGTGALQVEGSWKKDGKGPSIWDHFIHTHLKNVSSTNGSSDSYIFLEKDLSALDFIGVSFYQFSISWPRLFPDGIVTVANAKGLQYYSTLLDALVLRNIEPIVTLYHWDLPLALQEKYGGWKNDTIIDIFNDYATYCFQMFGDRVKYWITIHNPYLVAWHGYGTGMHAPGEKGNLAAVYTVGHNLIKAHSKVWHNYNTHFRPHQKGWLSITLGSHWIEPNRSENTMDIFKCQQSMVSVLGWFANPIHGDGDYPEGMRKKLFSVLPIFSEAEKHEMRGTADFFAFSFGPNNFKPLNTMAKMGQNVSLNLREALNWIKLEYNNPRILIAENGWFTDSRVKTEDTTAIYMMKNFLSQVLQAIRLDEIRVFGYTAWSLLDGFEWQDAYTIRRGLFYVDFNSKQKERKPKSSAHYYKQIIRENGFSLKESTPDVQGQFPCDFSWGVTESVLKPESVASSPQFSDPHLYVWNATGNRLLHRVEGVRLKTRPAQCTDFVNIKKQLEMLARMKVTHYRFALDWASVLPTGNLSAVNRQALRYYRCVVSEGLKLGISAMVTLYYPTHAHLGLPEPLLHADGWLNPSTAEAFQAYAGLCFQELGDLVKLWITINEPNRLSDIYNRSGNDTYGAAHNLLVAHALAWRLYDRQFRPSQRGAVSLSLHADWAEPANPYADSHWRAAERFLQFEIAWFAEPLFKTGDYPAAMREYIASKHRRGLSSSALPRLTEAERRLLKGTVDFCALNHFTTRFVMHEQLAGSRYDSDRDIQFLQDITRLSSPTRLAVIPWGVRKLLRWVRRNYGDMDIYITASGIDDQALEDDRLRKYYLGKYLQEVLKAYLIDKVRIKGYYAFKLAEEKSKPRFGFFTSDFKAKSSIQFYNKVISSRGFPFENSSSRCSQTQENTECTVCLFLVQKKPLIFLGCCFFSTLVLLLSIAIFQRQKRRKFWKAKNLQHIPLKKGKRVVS
Sequence of UniProt Q86Z14 (P11362 22-822, chain 2 of 2, further chain): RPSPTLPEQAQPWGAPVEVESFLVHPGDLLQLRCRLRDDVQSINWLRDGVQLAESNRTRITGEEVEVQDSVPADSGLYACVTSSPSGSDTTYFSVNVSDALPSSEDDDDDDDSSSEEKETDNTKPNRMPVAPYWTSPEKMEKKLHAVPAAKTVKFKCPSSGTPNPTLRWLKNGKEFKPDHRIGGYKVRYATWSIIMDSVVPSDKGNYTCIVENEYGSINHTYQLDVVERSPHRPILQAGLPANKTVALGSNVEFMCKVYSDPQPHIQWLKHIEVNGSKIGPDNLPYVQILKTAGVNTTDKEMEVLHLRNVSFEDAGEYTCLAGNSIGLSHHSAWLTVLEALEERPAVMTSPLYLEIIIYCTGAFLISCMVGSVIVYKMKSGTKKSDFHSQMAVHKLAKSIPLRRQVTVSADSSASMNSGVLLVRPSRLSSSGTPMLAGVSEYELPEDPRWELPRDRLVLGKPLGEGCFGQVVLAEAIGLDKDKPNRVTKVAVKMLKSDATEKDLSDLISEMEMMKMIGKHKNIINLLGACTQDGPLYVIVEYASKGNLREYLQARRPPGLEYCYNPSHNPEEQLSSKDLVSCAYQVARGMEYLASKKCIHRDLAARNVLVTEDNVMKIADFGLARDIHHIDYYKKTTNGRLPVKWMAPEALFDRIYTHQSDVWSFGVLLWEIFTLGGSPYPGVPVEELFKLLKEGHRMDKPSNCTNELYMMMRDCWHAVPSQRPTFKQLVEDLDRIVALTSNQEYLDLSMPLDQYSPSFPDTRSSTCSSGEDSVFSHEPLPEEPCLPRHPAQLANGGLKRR

adipocyte pERK assay: EC50 (read off the curve) [lower row]: 0.7 nM
Substance: FGF21 (from UniProt Q9NSA1 29-209) (ligand)
